Assay results reported in patent US12617870B2, “Methods of reversing ticagrelor activity” (SFJ Pharmaceuticals X, LTD., priority 2018, dated 2026).
Where “and” joins values, the source holds several entries; their conditions need not be identical. Equal values may be shown once. Entries after “also recorded” stand apart in the source; their conditions may differ.

Assays:
[1] = Phase 1 healthy volunteer study: immunogenicity (anti-drug antibodies); assay type: in vivo, human
Method: (§1) The primary safety outcome was the frequency and severity of treatment emergent adverse events (AEs) associated with PB2452 with or without oral ticagrelor pretreatment. Clinical laboratory test results, vital sign measurements, 12-lead ECG and continuous telemetry results, and physical examination findings were also assessed at multiple timepoints from screening to the end of the 28-day safety follow-up period. Immunogenicity was assessed before and at 7 and 28 days after PB2452 administration.
Other secondary outcomes included assessment of the PB2452 and ticagrelor pharmacokinetic profiles and evaluation of PB2452 immunogenicity at day 7 and 28 post-infusion.

[2] = Phase 1 healthy volunteer study: safety, treatment-emergent adverse events; assay type: in vivo, human
Text: Safety Assessments: Safety and tolerability will be assessed by monitoring and recording of AEs, clinical laboratory test results (hematology, coagulation, serum chemistry, and urinalysis), vital sign measurements (systolic and diastolic blood pressures, oral body temperature, respiratory rate, and heart rate), 12-lead ECG results, cardiac telemetry monitoring, immunogenicity, and physical examination findings.
as §1

[3] = test system: platelet reactivity (VerifyNow P2Y12); test: Phase 1 healthy volunteer study: VerifyNow P2Y12 platelet reactivity (PRU); assay type: in vivo, human; details: sustained for 24 hours
Text: Secondary Objectives: 1) To determine the pharmacokinetics of ascending doses of IV PB2452 in the presence and absence of ticagrelor; 2) To determine the pharmacokinetics of ticagrelor and its active metabolite TAM in the presence and absence of PB2452; 3) To assess the effectiveness of a single IV PB2452 dose in reversing ticagrelor antiplatelet activity by measuring P2Y12 reaction units (PRU) with VerifyNow™ P2Y12 assay and platelet reactivity index (PRI) with vasodilator stimulated phosphoprotein (VASP) phosphorylation assay by enzyme-linked immunosorbent assay (ELISA); 3) To evaluate the pharmacokinetics and pharmacodynamics of restarting a single dose of oral ticagrelor 24 hours after IV PB2452 administration if a sixth dose of ticagrelor is given; 4) To evaluate the immunogenicity potential of PB2452 […]
(§2) The primary efficacy outcome was the effectiveness of PB2452 in reversing the antiplatelet effect of ticagrelor by analyzing platelet aggregation using light transmission aggregometry at multiple time points before and after PB2452 or placebo administration in ticagrelor pretreated subjects. Secondary efficacy outcomes were the effectiveness of ticagrelor reversal assessed using VerifyNow and the vasodilator stimulated phosphoprotein phosphorylation immunoassay (VASP).

[4] = test system: platelet aggregation (ticagrelor antiplatelet activity); assay type: in vivo, human
Method: Platelet function was assessed using light transmission aggregometry (LTA), VerifyNow, and vasodilator stimulated phosphoprotein (VASP) assays before and after 48 hours of ticagrelor administration […] Cohorts 7 to 10 received an 18-gram fixed dose of PB2452 via various infusion regimens or placebo. Infusions of PB2452 in these cohorts were initiated 2 hours after the last ticagrelor pretreatment dose to coincide with the peak concentration of ticagrelor. (Gurbel (2009). Subjects in all cohorts were randomized in a 3:1 ratio to receive PB2452 or placebo. The primary efficacy outcome was the effectiveness of PB2452 in reversing the antiplatelet effect of ticagrelor by analyzing platelet aggregation using light transmission aggregometry at multiple time points before and after PB2452 or placebo administration in ticagrelor pretreated subjects. Secondary efficacy outcomes were the effectiveness of ticagrelor reversal assessed using VerifyNow and the vasodilator stimulated phosphoprotein phosphorylation immunoassay (VASP). The sample size of 64 was based on clinical and practical considerations and not on a formal statistical power calculation. The sample size was considered sufficient to adequately assess the safety, efficacy, and pharmacokinetic profiles of PB2452 and the pharmacokinetic and pharmacodynamic profiles of ticagrelor. Reversal of antiplatelet effect was evaluated by comparing the mean percent of baseline platelet aggregation between PB2452 and placebo using Wilcoxon rank-sum test. Multiplicity was adjusted using the Bonferroni method. Correlations between each pair of the platelet function tests were evaluated using Pearson's correlation and Spearman's rank correlation coefficient. Mean data from subjects receiving placebo were pooled across cohorts for all presentations. Categorical variables are summarized by their frequencies and percentages, and continuous variables are presented with the number of subjects with non-missing data, mean, standard deviation, median, minimum, and maximum. Descriptive statistics are presented for each cohort, and pooled placebo and PB2452 data. For pharmacodynamic data, platelet aggregation results were compared between each cohort and pooled placebo data (cohorts 4 to 6 and cohort 7 to 10 were pooled separately). All analyses were performed with SAS software, version 9.4 (SAS Institute).

[5] = Phase 1 healthy volunteer study: pharmacokinetics of PB2452; assay type: in vivo, human
Method: Plasma Collection: Blood samples for PK analysis of PB2452 in plasma will be collected from all subjects at the following time points: before dosing (within 10 minutes prior to the initiation of study drug infusion and up to 28 days after the initiation of study drug infusion. Specific collection times for each cohort are listed in the table below: […]

P2Y12 receptor signaling = test: Phase 1 healthy volunteer study: VASP phosphorylation ELISA (PRI); details: human, in vivo
Text: Secondary Objectives: 1) To determine the pharmacokinetics of ascending doses of IV PB2452 in the presence and absence of ticagrelor; 2) To determine the pharmacokinetics of ticagrelor and its active metabolite TAM in the presence and absence of PB2452; 3) To assess the effectiveness of a single IV PB2452 dose in reversing ticagrelor antiplatelet activity by measuring P2Y12 reaction units (PRU) with VerifyNow™ P2Y12 assay and platelet reactivity index (PRI) with vasodilator stimulated phosphoprotein (VASP) phosphorylation assay by enzyme-linked immunosorbent assay (ELISA); 3) To evaluate the pharmacokinetics and pharmacodynamics of restarting a single dose of oral ticagrelor 24 hours after IV PB2452 administration if a sixth dose of ticagrelor is given; 4) To evaluate the immunogenicity potential of PB2452
VASP by ELISA: 1) PRU at each assessment point; 2) Percent of baseline in PRU; 3) Maximal PRU; 4) Time to maximal PRU; 5) Time to 60%, 80%, 90% of baseline PRU
as §2

[6] = of the 48 subjects given PB2452

B1: PB2452: recombinant human IgG1λ monoclonal Fab antibody fragment that binds specifically to ticagrelor and TAM (antibody, listed as Homo sapiens)
heavy: QVQLQESGAEVKKPGSSVRVSCKASGGTFDSYSIHWVRQAPGQGLEWMGGIIPAFGTLSSAQDFQARVTISADKSTSTAYMELSGLRSEDTAVYYCARGSFDYYFWSASHPPNDALAIWGQGTLVTVSSASTKGPSVFPLAPSSKSTSGGTAALGCLVKDYFPEPVTVSWNSGALTSGVHTFPAVLQSSGLYSLSSVVTVPSSSLGTQTYICNVNHKPSNTKVDKRVEPKSCDK
light: QSVVTQPPSVSAAPGQKVTISCSGSNSDIGNNYVSWYQQLPGTAPKLLIYDNNKRPSGIPDRFSGSKSGTSATLAITGLQAGDEADYYCGTWLYDRAVGLFGGGTKVTVLGQPKAAPSVTLFPPSSEELQANKATLVCLISDFYPGAVTVAWKADSSPVKAGVETTTPSKQSNNKYAASSYLSLTPEQWKSHRSYSCQVTHEGSTVEKTVAPTECS
modifications: PB2452 VH with CH1; PB2452 VL with CL
With B1 the “effect of antibody titers on PB2452 safety or efficacy” value ([1]; human, in vivo) was “no observed effect”, the “subjects anti-drug antibody positive post-dosing” value [1, 6] was 6 (12.5%) subjects (%) and the “subjects with detectable anti-drug antibodies” value [1, 6] was 21 (43.8%) subjects (%). For the same molecule, the “subjects with pre-existing (pre-dose) antibodies” value [1, 6] was 15 (31.3%) subjects (%), the “overall safety and tolerability” value ([2]; 0.1 to 18 g IV, healthy subjects) was “safe and well-tolerated” and the “Number of Subjects with at Least 1 TEAE” value ([2]; All PB2452 (N = 48)) was 17 (35.4%) n (%) and 17 (35.4) n (%). For the same molecule, the “Total Number of TEAEs” value ([2]; All PB2452 (N = 48)) was 27, the Abdominal pain ([2]; TEAE, All PB2452 (N = 48)) was 1 (2.1) n (%) and the Acute respiratory failure ([2]; TEAE, All PB2452 (N = 48)) was 1 (2.1) n (%). The Alcohol poisoning ([2]; TEAE, All PB2452 (N = 48)) was 1 (2.1) n (%), the Blood urine present ([2]; TEAE, All PB2452 (N = 48)) was 1 (2.1) n (%) and the Conjunctivitis ([2]; TEAE, All PB2452 (N = 48)) was 1 (2.1) n (%). The Contusion ([2]; TEAE, All PB2452 (N = 48)) was 0 n (%), the Dizziness ([2]; TEAE, All PB2452 (N = 48)) was 1 (2.1) n (%) and the Eyelid irritation ([2]; TEAE, All PB2452 (N = 48)) was 0 n (%). For the same molecule, the Gastroenteritis ([2]; TEAE, All PB2452 (N = 48)) was 1 (2.1) n (%), the Hematuria ([2]; TEAE, All PB2452 (N = 48)) was 1 (2.1) n (%) and the Infusion site bruising ([2]; TEAE, All PB2452 (N = 48)) was 4 (8.3) n (%). For the same molecule, the Infusion site extravasation ([2]; TEAE, All PB2452 (N = 48)) was 2 (4.2) n (%), the Infusion site reaction ([2]; TEAE, All PB2452 (N = 48)) was 1 (2.1) n (%) and the “Medical device site reaction” value ([2]; TEAE, All PB2452 (N = 48)) was 3 (6.3) n (%). The Musculoskeletal chest pain ([2]; TEAE, All PB2452 (N = 48)) was 0 n (%), the Nasopharyngitis ([2]; TEAE, All PB2452 (N = 48)) was 1 (2.1) n (%) and the Oropharyngeal pain ([2]; TEAE, All PB2452 (N = 48)) was 1 (2.1) n (%). For the same molecule, the Pharyngitis streptococcal ([2]; TEAE, All PB2452 (N = 48)) was 1 (2.1) n (%), the Pneumonia aspiration ([2]; TEAE, All PB2452 (N = 48)) was 1 (2.1) n (%) and the Skin abrasion ([2]; TEAE, All PB2452 (N = 48)) was 1 (2.1) n (%). The Upper limb fracture ([2]; TEAE, All PB2452 (N = 48)) was 1 (2.1) n (%), the “Vessel puncture site bruise” value ([2]; TEAE, All PB2452 (N = 48)) was 2 (4.2) n (%) and the “deaths or adverse events leading to study drug discontinuation” value ([2]; human, in vivo) was “no deaths or adverse events leading to study drug discontinuation”. For the same molecule, the drug-related adverse events ([2]; human, in vivo) was “no drug-related adverse events; also recorded: None of the adverse events was considered related to study drug”, the “study-drug related serious adverse events, dose-limiting toxicities, infusion-related reactions” value ([2]; human, in vivo) was “no study-drug related serious adverse events, dose-limiting toxicities, or infusion-related reactions; also recorded: no serious adverse events or infusion reactions associated with PB2452” and the “mean VerifyNow platelet reactivity” value [3] was at least 180 PRU. For the same molecule, the “time to complete restoration of platelet function” value ([4]; 3 g or 9 g PB2452 IV over 30 minutes) was at most 30 min, the “reversal sustained for” value ([4]; 10-minute IV bolus followed by 16-hour infusion, multiple assays) was “over 20 hours” and the onset of reversal ([4]; 10-minute IV bolus followed by 16-hour infusion, multiple assays, vs placebo P<0.0001) was at most 5 min. The “time to significantly increased mean platelet aggregation” value ([4]; Cohort 7, 18 g: 3.0 g bolus followed by 8 hour infusion) was at most 2 h, the “time to reversal after initiation of the infusion” value ([4]; Cohorts 8 to 10, 18 g: 6.0 g bolus followed by infusions for 12 or 16 hours) was at most 5 min and the “mean platelet aggregation restored, relative to pre-ticagrelor baseline” value ([4]; LTA, all post-treatment time points up to 20 hours) was ≥ 80 % of baseline. The “rebound in platelet activity after drug cessation” value ([4]; human, in vivo) was “no evidence of rebound”, the “PB2452 exposure extended for” value ([5]; 18 gram dose level with 8- to 16-hour infusions) was 12 to 24 h and the estimated distribution half-life ([5]; IV, healthy subjects) was 0.86 h. The estimated terminal half-life ([5]; IV, healthy subjects) was 6.9 h, the volume of distribution ([5]; IV, healthy subjects) was “approximately 2.9 L” and the “dose dependence of mean exposure” value ([5]; dose range of 0.1 to 9.0 grams) was “dose-linear increases in mean exposure”. For the same molecule, the “VASP PRI restored, relative to baseline” value (P2Y12 receptor signaling) was ~100 % of baseline, the “duration of restored VASP PRI” value (P2Y12 receptor signaling) was 20 to 24 h and the “time to restoration of VASP PRI” value (P2Y12 receptor signaling) was at most 5 min.
